# Experimental data published in PMC8217500, “Sequence signatures of two public antibody clonotypes that bind SARS-CoV-2 receptor binding domain” (Nature Communications, 2021).
# B1: COVA2-20 Fab, wild type (Fab, V domains shown)
# VH: EVQLVESGGGLIQPGGSLRLSCAASGFTVSSNYMSWVRQAPGKGLEWVSVIYSGGSTYYADSVKGRFTISRDNSKNTLYLQMNSLRAEDTAVYYCASPLLLTPPDYYYYMDVWGKGTMVTVSS
# VL: DVVMTQSPSSLSVSVGDRVTITCRASQGIRNDLGWYQQKPGKAPKRLIYAASSLQSGVPSRFSGSGSGTEFTLTISSLQPEDFATYYCLQHNSYLWTFGQGTKLEIK
# B2: COV107-23 Fab (Fab, V domains shown)
# VH: EVQLVESGGGLIQPGGSLRLSCAASGFTVSSNYMSWVRQAPGKGLEWVSVIYSGGSTFYADSVKGRFTISRDNSKNTLYLQMNSLRAEDTAVYYCARDLGTGLFDYWGQGTLVTVSS
# VL: DIQLTQSPSFLSASVGDRVTITCRASQGISSYLAWYQQKPGKAPKLLIYAASTLQSGVPSRFSGSGSGTEFTLTISSLQPEDFATYYCQQLDSYPPGTFGPGTKVDIK
# notes: also called wild-type (WT) COV107-23; source: Expi293F, transiently co-transfected, purified (CaptureSelect CH1-XL column)
# B3: COVA2-20 Fab, Y58 (wild type) (Fab, V domains shown)
# VH: B1 VH
# VL: B1 VL
# Legend:
# Settings in all cases: both partners purified
# [1] = target: T1, Fc-tagged SARS-CoV-2 receptor-binding domain (RBD), wild type (SARS-CoV-2, Wuhan-Hu-1 (QHD43416.1), UniProt P0DTC2); assay: BLI; Fc-tagged RBD (20 ug/ml) loaded on anti-hIgG Fc Capture (AHC) biosensors, Fab in solution at four to five concentrations; Octet Red96e, room temperature, 1x kinetics buffer (1x PBS pH 7.4, 0.01% w/v BSA, 0.002% v/v Tween 20); 1:1 binding model
# T1 construct: also called SARS-CoV-2 RBD; WT RBD; not shown: Fc, C-terminal, kept
# Fc-tagged SARS-CoV-2 RBD = target: T2, Fc-tagged SARS-CoV-2 RBD (SARS-CoV-2, Wuhan-Hu-1 (QHD43416.1), UniProt P0DTC2); assay: BLI; Octet Red96e, room temperature; Fc-tagged RBD (20 μg/ml) loaded on anti-hIgG Fc Capture (AHC) biosensors, Fab in solution; 1× kinetics buffer (1× PBS pH 7.4, 0.01% BSA, 0.002% Tween 20); 60 s association, 60 s dissociation; 1:1 binding model
# T2 construct: also called SARS-CoV-2 S RBD-Fc; not shown: Fc, C-terminal, kept
# [2] = target: T3, Fc-tagged SARS-CoV-2 spike receptor-binding domain (RBD) (SARS-CoV-2, Wuhan-Hu-1 (QHD43416.1), UniProt P0DTC2); assay: BLI; Fc-tagged RBD (20 ug/ml) loaded on anti-hIgG Fc Capture (AHC) biosensors, Fab in solution; room temperature; 1x PBS pH 7.4, 0.01% BSA, 0.002% Tween 20; 1:1 binding model
# T3 construct: also called SARS-CoV-2 RBD; Fc-tagged RBD; source: Expi293F, transiently transfected, purified (KanCapA protein A resin); not shown: Fc (after an SSSSG linker), C-terminal, kept
binder,measurement,setting,value
B1,Kd,[1],304 ± 20 nM
B2,Kd,Fc-tagged SARS-CoV-2 RBD,1 nM
B3,Kd,[2],304 nM
